Experimental data: the supplement of paper PMC12042874
± gives the uncertainty stated by the source.

test: amyloid nucleation score (Sup35N fusion, yeast selection) (log enrichment); library NNK2; higher = more nucleation; inactive = no reads after selection
Summary of the method: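 Nucleation score is defined as the DiMSum log enrichment of output over input reads, with centring on the mode score of non-aggregating sequences. A minimum of 100 input reads was required for each sequence. Reads came from Illumina sequencing of plasmid inserts from psi-negative yeast expressing Sup35N fused to peptides of 20 random codons, induced with 100 μM copper sulfate for 24 hours and grown 7 days at 30°C on medium lacking adenine and uracil.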

For LMRRHRA, which amyloid nucleation score is on record?
The amyloid nucleation score was 0.954 ± 0.25.

Which amyloid nucleation score does the source give for LMSMVCSESL here?
Its amyloid nucleation score is -0.555 ± 0.35.

With LMSSLFPLSSACY as the substance, how does the amyloid nucleation score read?
The amyloid nucleation score was -0.545 ± 0.38.

Which amyloid nucleation score does the source give for LMYFMNGL here?
The amyloid nucleation score was 0.045 ± 0.63.

With LMYVGFTRMRKKINRKVYLV as the substance, how does the amyloid nucleation score read?
Its amyloid nucleation score is 3.19 ± 0.1.

Which amyloid nucleation score does the source give for LNCFYEPTSGSKLYTLRPAF here?
The amyloid nucleation score was -0.107 ± 1.

Which amyloid nucleation score does the source give for LNCVFLSLSQTGGSCELDFV here?
Its amyloid nucleation score is 7.007 ± 0.043.

Which amyloid nucleation score does the source give for LNFDLLTMFWT here?
The amyloid nucleation score was 0.182 ± 0.79.

For LNGYATLCYPVILSRIVYGP, which amyloid nucleation score is on record?
Its amyloid nucleation score is 4.03 ± 0.043.

With LNIYF as the substance, how does the amyloid nucleation score read?
Its amyloid nucleation score is 3.13 ± 0.11.

Which amyloid nucleation score does the source give for LNLIHR here?
The amyloid nucleation score was 0.153 ± 0.79.

With LNLILIDFKTSRCVERPFRE as the substance, how does the amyloid nucleation score read?
The amyloid nucleation score was 7.052 ± 0.051.

With LNNGCCMSLPVPTRPDDRDK as the substance, how does the amyloid nucleation score read?
The amyloid nucleation score was 0.356 ± 0.8.

Which amyloid nucleation score does the source give for LNPRNQCERRCFSVSGLKWY here?
The amyloid nucleation score was -0.899 ± 0.64.

For LNRVQLNLRGQRITLSHYQI, which amyloid nucleation score is on record?
Its amyloid nucleation score is -0.536 ± 1.1.

Which amyloid nucleation score does the source give for LNSFVPVDSRVVTSAEWYAG here?
Its amyloid nucleation score is 0.889 ± 0.23.

With LNVHCAGCCANWPLC as the substance, how does the amyloid nucleation score read?
The amyloid nucleation score was 9.041 ± 0.026.

For LNVLISYMHRVWRYIVSAR, which amyloid nucleation score is on record?
Its amyloid nucleation score is 0.362 ± 0.35.

Which amyloid nucleation score does the source give for LNVTSLLIVRLRCVFLHPTD here?
Its amyloid nucleation score is 2.15 ± 0.44.

With LNVWRLFRRWWEWRRDCEFA as the substance, how does the amyloid nucleation score read?
The amyloid nucleation score was 0.435 ± 0.37.

For LNYALLVEFCLCLNPDNNSS, which amyloid nucleation score is on record?
The amyloid nucleation score was 8.57 ± 0.055.

Which amyloid nucleation score does the source give for LPFLPSCVVEKQVEYVWIRG here?
The amyloid nucleation score was 0.332 ± 0.25.

With LPLWLIDIALFLSFCIVGQS as the substance, how does the amyloid nucleation score read?
Its amyloid nucleation score is -0.369 ± 1.1.

Which amyloid nucleation score does the source give for LPQVPRVFRS here?
Its amyloid nucleation score is -0.06 ± 1.1.

With LPTIGVWLTRPRVCFLSYSV as the substance, how does the amyloid nucleation score read?
Its amyloid nucleation score is 0.045 ± 0.63.

For LPVQAYAS, which amyloid nucleation score is on record?
The amyloid nucleation score was “inactive”.

Which amyloid nucleation score does the source give for LPWHICLVHPR here?
The amyloid nucleation score was 1.81 ± 0.078.

For LPWLWQLTFPFWA, which amyloid nucleation score is on record?
Its amyloid nucleation score is 0.582 ± 0.37.

Which amyloid nucleation score does the source give for LPYRSCLWFFFDIRNDVRVG here?
The amyloid nucleation score was 2.25 ± 0.12.

For LQASDKGKLLRTIPLRHYVP, which amyloid nucleation score is on record?
Its amyloid nucleation score is 1.02 ± 0.33.

Which amyloid nucleation score does the source give for LQDAHHSVVCVRQSCYERLG here?
The amyloid nucleation score was -0.187 ± 0.65.

For LQDLTWRLCFKVWCDHSPEN, which amyloid nucleation score is on record?
Its amyloid nucleation score is 4.08 ± 0.091.

Which amyloid nucleation score does the source give for LQKDYTSMH here?
The amyloid nucleation score was “inactive”.

Which amyloid nucleation score does the source give for LQRYRFSNACI here?
The amyloid nucleation score was “inactive”.

For LQVTPIIPYCVSELYMYGGM, which amyloid nucleation score is on record?
Its amyloid nucleation score is -0.097 ± 0.79.

For LRAGTKWTNPFEQVYMTWCG, which amyloid nucleation score is on record?
Its amyloid nucleation score is 0.044 ± 1.1.

With LRAHFWGDD as the substance, how does the amyloid nucleation score read?
The amyloid nucleation score was 0.335 ± 0.31.

With LRFCYKEATV as the substance, how does the amyloid nucleation score read?
The amyloid nucleation score was 0.016 ± 0.65.

With LRFLVGVHAAYYIHTS as the substance, how does the amyloid nucleation score read?
The amyloid nucleation score was -0.649 ± 0.79.

With LRFVEPTTCVWGRDLFGAHS as the substance, how does the amyloid nucleation score read?
The amyloid nucleation score was 0.545 ± 0.53.

With LRHWCE as the substance, how does the amyloid nucleation score read?
The amyloid nucleation score was 0.218 ± 0.18.

Which amyloid nucleation score does the source give for LRIVICT here?
The amyloid nucleation score was -1.63 ± 0.62.

With LRLGRLPFMRSISVTCKNEL as the substance, how does the amyloid nucleation score read?
The amyloid nucleation score was 1.91 ± 0.32.

With LRLLQVVGVCCSGTWVDGCW as the substance, how does the amyloid nucleation score read?
Its amyloid nucleation score is 6.074 ± 0.04.

Which amyloid nucleation score does the source give for LRLTRVYSSYRESVKKKI here?
The amyloid nucleation score was 0.418 ± 0.21.

For LRLTYSWSYSCLLITNQRQN, which amyloid nucleation score is on record?
The amyloid nucleation score was -0.009 ± 0.65.

With LRNDDIY as the substance, how does the amyloid nucleation score read?
Its amyloid nucleation score is -0.533 ± 0.39.

With LRNLS as the substance, how does the amyloid nucleation score read?
Its amyloid nucleation score is -0.919 ± 1.

With LRRVFQISERRNKLWLYEEC as the substance, how does the amyloid nucleation score read?
The amyloid nucleation score was 0.6 ± 0.74.

Which amyloid nucleation score does the source give for LRRYYQCGTRLLIRFRMLEV here?
The amyloid nucleation score was 1 ± 0.34.

Which amyloid nucleation score does the source give for LRSCSCIGKLDEEPGGFACA here?
Its amyloid nucleation score is -0.956 ± 0.78.

With LRTISCIITLVGWITASTKH as the substance, how does the amyloid nucleation score read?
The amyloid nucleation score was 0.124 ± 0.62.

Which amyloid nucleation score does the source give for LRVKKYTDFHELEVGLFFWL here?
The amyloid nucleation score was “inactive”.

For LRVWVTAFFFSVMMCEQMFQ, which amyloid nucleation score is on record?
Its amyloid nucleation score is “inactive”.

Which amyloid nucleation score does the source give for LRYNIMWKQHNATAYDEYRA here?
Its amyloid nucleation score is 3.65 ± 0.12.

Which amyloid nucleation score does the source give for LSAGPALHSYLSGNVFSIEL here?
Its amyloid nucleation score is 2.69 ± 0.069.

Which amyloid nucleation score does the source give for LSARFHHAKFLNYSDSRVGQ here?
Its amyloid nucleation score is “inactive”.

For LSCCYDDHRLQGRCGSGRFH, which amyloid nucleation score is on record?
The amyloid nucleation score was 0.946 ± 0.27.

For LSCLK, which amyloid nucleation score is on record?
Its amyloid nucleation score is -0.344 ± 0.28.

Which amyloid nucleation score does the source give for LSCRWHCIVTLDVAAYNEPE here?
The amyloid nucleation score was 5.765 ± 0.044.

For LSEMYTFCEDSRAFTVYWTF, which amyloid nucleation score is on record?
The amyloid nucleation score was -1.02 ± 0.45.

For LSGLEDMSISSNDYSSDVAR, which amyloid nucleation score is on record?
The amyloid nucleation score was 0.45 ± 0.8.

Which amyloid nucleation score does the source give for LSGRCFFNVLLINCKRTERI here?
The amyloid nucleation score was 2.1 ± 0.19.

For LSHILMI, which amyloid nucleation score is on record?
Its amyloid nucleation score is “inactive”.

Which amyloid nucleation score does the source give for LSIHLQRTQWYLLFEW here?
Its amyloid nucleation score is 0.01 ± 0.39.

Which amyloid nucleation score does the source give for LSKCHCNILCVLMTCMWHLY here?
The amyloid nucleation score was 0.333 ± 0.46.

With LSKLNGGSSVTSV as the substance, how does the amyloid nucleation score read?
The amyloid nucleation score was 0.665 ± 0.2.

With LSKRIDSRDMLGSGNHRCLL as the substance, how does the amyloid nucleation score read?
Its amyloid nucleation score is -0.655 ± 0.64.

For LSKSVLKNTWGVYVI, which amyloid nucleation score is on record?
The amyloid nucleation score was -0.358 ± 0.79.

For LSLFSYPLHAPFLTMVSWPY, which amyloid nucleation score is on record?
Its amyloid nucleation score is -0.78 ± 0.78.

For LSLLFH, which amyloid nucleation score is on record?
Its amyloid nucleation score is “inactive”.

For LSLMHAQHSTMLDNSMTM, which amyloid nucleation score is on record?
The amyloid nucleation score was 0.621 ± 0.56.

For LSLNG, which amyloid nucleation score is on record?
Its amyloid nucleation score is -0.955 ± 0.39.

With LSMTEWVFSKGNRALAVYYM as the substance, how does the amyloid nucleation score read?
Its amyloid nucleation score is -1.39 ± 0.61.

Which amyloid nucleation score does the source give for LSMTKLGVIGTSCNFLLW here?
Its amyloid nucleation score is “inactive”.

With LSMVDCGASDGLEQVFGLAG as the substance, how does the amyloid nucleation score read?
Its amyloid nucleation score is 0.14 ± 0.33.

With LSNEAWFGQGMLDGWGGGEG as the substance, how does the amyloid nucleation score read?
Its amyloid nucleation score is 0.514 ± 0.56.

With LSNRSYFTSTAWYEKNRPA as the substance, how does the amyloid nucleation score read?
The amyloid nucleation score was -0.293 ± 0.26.

For LSPRNPYAFVSAISDRIM, which amyloid nucleation score is on record?
Its amyloid nucleation score is -0.97 ± 0.63.

With LSQGLIKRMYQHMCMKCVGF as the substance, how does the amyloid nucleation score read?
Its amyloid nucleation score is -0.08 ± 0.35.

With LSRSRVINIYASAGWRFLGS as the substance, how does the amyloid nucleation score read?
The amyloid nucleation score was “inactive”.

With LSSCLHEIRDSVVVRVVVVY as the substance, how does the amyloid nucleation score read?
Its amyloid nucleation score is -0.684 ± 0.5.

With LSSTRDR as the substance, how does the amyloid nucleation score read?
Its amyloid nucleation score is -1.24 ± 0.48.

With LSSTYRC as the substance, how does the amyloid nucleation score read?
Its amyloid nucleation score is -0.24 ± 0.39.

Which amyloid nucleation score does the source give for LSSWS here?
Its amyloid nucleation score is -0.611 ± 0.44.

For LSVAFRVW, which amyloid nucleation score is on record?
The amyloid nucleation score was -0.55 ± 0.49.

For LSVGLNKYRNA, which amyloid nucleation score is on record?
Its amyloid nucleation score is -0.919 ± 0.76.
